Measurements reported in US20130224145A1.

Molecular target: Fas on the cell surface of human Jurkat T cell line (human) (UniProt P25445)
Assay: cell-based or functional assay

UniProt P25445, sequence (P25445 26-335): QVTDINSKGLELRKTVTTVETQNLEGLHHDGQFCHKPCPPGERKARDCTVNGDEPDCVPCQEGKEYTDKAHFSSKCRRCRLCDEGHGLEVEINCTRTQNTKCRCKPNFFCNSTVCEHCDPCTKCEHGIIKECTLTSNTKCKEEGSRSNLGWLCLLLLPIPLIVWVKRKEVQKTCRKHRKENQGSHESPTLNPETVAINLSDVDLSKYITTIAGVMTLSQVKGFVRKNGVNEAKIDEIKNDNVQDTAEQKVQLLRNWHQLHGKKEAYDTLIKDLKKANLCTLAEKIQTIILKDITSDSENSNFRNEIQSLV

dead cells (Propidium Iodide staining of Jurkat T cells after 24 hr): 87%
Substance: streptavidin-FasL fusion protein (SAFasL) (from UniProt P48023 103-281) (ligand)
cytotoxicity relative to the anti-Fas antibody: 3 times
